Results as given in paper PMC10371073.

B1: Fused in Sarcoma (FUS), endogenous wild type [human (endogenous in HEK293 and human fibroblasts)] / DNA Ligase IIIα (Lig3), mitochondrial form mtLig3 [human (endogenous in HEK293 and human fibroblasts)] (parent)
chain 1: MASNDYTQQATQSYGAYPTQPGQGYSQQSSQPYGQQSYSGYSQSTDTSGYGQSSYSSYGQSQNTGYGTQSTPQGYGSTGGYGSSQSSQSSYGQQSSYPGYGQQPAPSSTSGSYGSSSQSSSYGQPQSGSYSQQPSYGGQQQSYGQQQSYNPPQGYGQQNQYNSSSGGGGGGGGGGNYGQDQSSMSSGGGSGGGYGNQDQSGGGGSGGYGQQDRGGRGRGGSGGGGGGGGGGYNRSSGGYEPRGRGGGRGGRGGMGGSDRGGFNKFGGPRDQGSRHDSEQDNSDNNTIFVQGLGENVTIESVADYFKQIGIIKTNKKTGQPMINLYTDRETGKLKGEATVSFDDPPSAKAAIDWFDGKEFSGNPIKVSFATRRADFNRGGGNGRGGRGRGGPMGRGGYGGGGSGGGGRGGFPSGGGGGGGQQRAGDWKCPNPTCENMNFSWRNECNQCKAPKPDGPGGGPGGSHMGGNYGDDRRGGRGGYDRGGYRGRGGDRGGFRGGRGGGDRGGFGPGKMDSRGEHRQDRRERPY
chain 2: LLHGHPLFLRRKPVLSFQGSHLRSRATYLVFLPGLHVGLCSGPCEMAEQRFCVDYAKRGTAGCKKCKEKIVKGVCRIGKVVPNPFSESGGDMKEWYHIKCMFEKLERARATTKKIEDLTELEGWEELEDNEKEQITQHIADLSSKAAGTPKKKAVVQAKLTTTGQVTSPVKGASFVTSTNPRKFSGFSAKPNNSGEAPSSPTPKRSLSSSKCDPRHKDCLLREFRKLCAMVADNPSYNTKTQIIQDFLRKGSAGDGFHGDVYLTVKLLLPGVIKTVYNLNDKQIVKLFSRIFNCNPDDMARDLEQGDVSETIRVFFEQSKSFPPAAKSLLTIQEVDEFLLRLSKLTKEDEQQQALQDIASRCTANDLKCIIRLIKHDLKMNSGAKHVLDALDPNAYEAFKASRNLQDVVERVLHNAQEVEKEPGQRRALSVQASLMTPVQPMLAEACKSVEYAMKKCPNGMFSEIKYDGERVQVHKNGDHFSYFSRSLKPVLPHKVAHFKDYIPQAFPGGHSMILDSEVLLIDNKTGKPLPFGTLGVHKKAAFQDANVCLFVFDCIYFNDVSLMDRPLCERRKFLHDNMVEIPNRIMFSEMKRVTKALDLADMITRVIQEGLEGLVLKDVKGTYEPGKRHWLKVKKDYLNEGAMADTADLVVLGAFYGQGSKGGMMSIFLMGCYDPGSQKWCTVTKCAGGHDDATLARLQNELDMVKISKDPSKIPSWLKVNKIYYPDFIVPDPKKAAVWEITGAEFSKSEAHTADGISIRFPRCTRIRDDKDWKSATNLPQLKELYQLSKEKADFTVVAGDEGSSTTGGSSEENKGPSGSAVSRKAPSKPSASTKKAEGKLSNSNSKDGNMQTAKPSAMKVGEKLATKSSPVKVGEKRKAADETLCQTKVLLDIFTGVRLYLPPSTPDFSRLRRYFVAFDGDLVQEFDMTSATHVLGSRDKNPAAQQVSPEWIWACIRKRRLVAPC

Variants of: B1
Test: proximity ligation assay (PLA) in control and patient derived fibroblasts
Details: with DNA Ligase IIIα (Lig3), GO treatment (100ng/ml for 1 hr) per legend, the box plot does not say whether control or GO-treated cells were counted, parent: 64, read off a plot

| response (PLA foci/cell) | Variant |
| --- | --- |
| 19 | chain 1 R521H |
| 20 | chain 1 P525L |
